Test results as given in IntAct's records for PubMed 31481669.

B1: EKC/KEOPS complex subunit LAGE3 (Homo sapiens), Q14657 (parent)
chain: MRDADADAGGGADGGDGRGGHSCRGGVDTAAAPAGGAPPAHAPGPGRDAASAARGSRMRPHIFTLSVPFPTPLEAEIAHGSLAPDAEPHQRVVGKDLTVSGRILVVRWKAEDCRLLRISVINFLDQLSLVVRTMQRFGPPVSR
partner: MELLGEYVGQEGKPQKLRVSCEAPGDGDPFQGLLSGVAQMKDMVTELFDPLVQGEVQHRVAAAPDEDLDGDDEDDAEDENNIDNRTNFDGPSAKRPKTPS

Variants of: B1
Conditions: with gon7_human GON7, Q9BXV9

Row | Variant | effect of a mutation on the interaction
1 | F137S | with no effect
2 | V106F | with no effect
